Test results taken from paper PMC6949598, “Structure-based mechanism of cysteine-switch latency and of catalysis by pappalysin-family metallopeptidases” (IUCrJ, 2020).

Biological target: T1, mature wild-type mirolysin (Tannerella forsythia, UniProt A0A0F7IPS1 55-331)
T1 construct: the model holds Pro58-Pro327; Holds one catalytic zinc and two calcium ions; disulfides Cys243-Cys271 and Cys262-Cys291; The promirolysin constructs were made in E. coli BL21 (DE3) as fusions with N-terminal GST and a PreScission site; also called mature mirolysin; CD; source: recombinant, prepared as previously described (Koneru et al., 2017)
Experiment: crystal structure; mature mirolysin incubated at 1:2 molar ratio with BFO_2662, which was cleaved; sitting drop, 4 °C, protein ~12 mg/ml in 5 mM Tris HCl, 50 mM NaCl, 5 mM CaCl2, pH 8.0; reservoir 40% ethanol, 5% PEG 1000, 0.1 M phosphate-citrate pH 4.2; 1.5 Å; one complex per asymmetric unit
Settings: both partners purified

B1: tetradecapeptide K110-K123 of small lipoprotein BFO_2662 (peptide)
peptide: KRDPVYFIKLSTIK
notes: segment K110-K123 of small lipoprotein BFO_2662, Tannerella forsythia; numbered Lys1-Lys14 in the structure; only the first seven residues were assigned unambiguously from the map; A citrate (CIT-1) in sub-site S1 belongs to molecule B of the model but is no part of the peptide; also called Lys1-Lys14; product; source: cleavage product of BFO_2662, cut by mirolysin during crystallization …
B1: binds.
